This is an account of results in patent US20110200533A1 (GUERBET, published 2011).

Ends that are not written are not given here.

In assay [1] the target is T1, recombinant human VCAM-1/Fc chimera (human, UniProt P19320 25-698).
T1 sequence (looked up): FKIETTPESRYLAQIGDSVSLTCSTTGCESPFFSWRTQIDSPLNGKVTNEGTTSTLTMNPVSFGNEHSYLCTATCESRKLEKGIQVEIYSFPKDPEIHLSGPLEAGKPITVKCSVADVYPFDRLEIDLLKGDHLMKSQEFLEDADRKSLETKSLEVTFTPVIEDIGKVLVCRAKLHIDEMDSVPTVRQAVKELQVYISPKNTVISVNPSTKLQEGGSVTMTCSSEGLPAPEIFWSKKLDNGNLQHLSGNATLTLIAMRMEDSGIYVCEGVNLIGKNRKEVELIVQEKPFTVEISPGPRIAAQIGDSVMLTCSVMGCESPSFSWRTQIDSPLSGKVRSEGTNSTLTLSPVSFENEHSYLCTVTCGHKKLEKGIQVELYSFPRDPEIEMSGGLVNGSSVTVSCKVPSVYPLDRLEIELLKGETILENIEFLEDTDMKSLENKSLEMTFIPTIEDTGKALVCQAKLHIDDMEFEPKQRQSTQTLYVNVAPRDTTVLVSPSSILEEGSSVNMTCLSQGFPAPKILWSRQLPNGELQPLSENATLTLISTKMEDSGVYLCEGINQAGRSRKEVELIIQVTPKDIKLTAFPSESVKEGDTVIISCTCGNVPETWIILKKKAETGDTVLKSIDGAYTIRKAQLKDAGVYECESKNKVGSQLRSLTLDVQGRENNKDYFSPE
The experiment in a line: cell-based or functional assay.

Assay [2] has as its target T1, recombinant human VCAM-1/Fc chimera. Description: ELISA: peptide immobilized on the plate, VCAM-1/Fc at increasing concentrations (3.9×10^-9-4.9×10^-7 M), detected with a mouse anti-human VCAM-1 mAb; apparent Kd. Background: In an ELISA, binding on a coated surface is turned into a signal by an enzyme label.

B1: cyclic peptide CNNSKSHTC (SEQ ID No. 2) (peptide)
peptide: CNNSKSHTC
modifications: not fully specified (bridges); also: cyclic, type of ring bond not given here
notes: also called VCAM PEPTIDE
With B1, in assay [1], the “inhibition of cell adhesion (PMA-stimulated Jurkat cells on immobilized VCAM-1), IC50” value was found to be 63 µM. For the same molecule, the Kd in assay [2] came out at 135 nM.
